In patent US20240000938A1:

Experiments:
[1] = biological target: HLA-A*02 on cells (human); assay: cell-based or functional assay
[2] = biological target: streptavidin-PE-HLA-A*02-pMHC or streptavidin-APC-HLA-A*02-pMHC tetramer (human); assay: flow cytometry; HLA-A*02 positive donor primary T cells with CAR and A*02 blocker, before B2M knockout
[3] = biological target: streptavidin-PE-HLA-A*02-pMHC or streptavidin-APC-HLA-A*02-pMHC tetramer (human); assay: flow cytometry; HLA-A*02 positive donor primary T cells with CAR and A*02 blocker, after B2M knockout with sgRNA B2M-3
[4] = biological target: streptavidin-PE-HLA-A*02-pMHC or streptavidin-APC-HLA-A*02-pMHC tetramer (human); assay: flow cytometry; HLA-A*02 positive donor primary T cells with CAR and A*02 blocker, after B2M knockout with sgRNA B2M-6

Substance: HLA-A*02 PA2.1 ScFv LIR1 inhibitor (C1765) (from UniProt Q8NHL6 398-650)
- inhibition of IFNγ induction in primary T cells (HeLa cells) [1]: > 5 fold
- inhibition of IFNγ induction in primary T cells (SiHa cells) [1]: > 10 fold
- suppression of pan HLA scFv CAR signal (T2 cells) [1]: < 25 fold
- % of cells negative for the A*02 blocker probe [2]: > 85%
- % of the cell population stained with the A*02 blocker probe [2]: 14.8%
- % of the cell population stained with the A*02 blocker probe [3]: 40.7%
- % of the cell population stained with the A*02 blocker probe [4]: 44%
